Values joined by “and” are separate entries in the source; they are usually repeats but may differ in a detail not shown here. Identical values can stand only once.
B1: anti-MSR1 (H1H21234N-N297Q) ADCs (antibody, V domains shown)
VH: QVQLQESGPGLVKPSETLSLTCTVTGGSISRNYWSWIRQPPGKGLEWIGYIYYSGSIDYNPSLKSRVTISVDTSKNQFSLKLSSMTAADTAVYYCARDRWNWKYGMDVWGQGTTVIVSS
VL: EIVLTQSPGTLSLSPGERATLSCRASQTVRNNYLAWYHQKPGQAPRLLIYGASSRATGIPDRFSGSGSGTDFTLTISRLEPEDFTVYYCHQYGNSPWTFGQGTKMEIKR
modifications: linker-payload on glutamines Q295 and Q297 (N297Q, EU numbering) of the heavy chain constant region; four DAR

Target: T1, human MSR1 (human, UniProt P21757 1-451)
T1 sequence (looked up): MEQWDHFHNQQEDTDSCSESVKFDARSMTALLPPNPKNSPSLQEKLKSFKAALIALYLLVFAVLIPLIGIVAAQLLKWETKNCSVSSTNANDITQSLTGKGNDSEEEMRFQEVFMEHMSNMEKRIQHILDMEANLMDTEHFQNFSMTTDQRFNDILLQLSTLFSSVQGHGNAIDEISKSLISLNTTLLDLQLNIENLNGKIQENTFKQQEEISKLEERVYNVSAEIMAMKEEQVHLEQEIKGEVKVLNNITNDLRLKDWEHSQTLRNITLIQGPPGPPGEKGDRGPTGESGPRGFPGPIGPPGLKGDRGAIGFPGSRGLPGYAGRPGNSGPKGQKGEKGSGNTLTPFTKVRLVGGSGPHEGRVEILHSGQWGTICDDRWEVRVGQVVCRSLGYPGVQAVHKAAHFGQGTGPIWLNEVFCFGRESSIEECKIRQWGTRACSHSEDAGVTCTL
Assay: cell-based or functional assay

| Molecule | EC50, GR luciferase reporter activity in HEK293/GRLuc/MSR1 cells | signal to noise (S/N), GR luciferase reporter in HEK293/GRLuc/MSR1 cells |
| --- | --- | --- |
| isotype control ADCs (antibody) | > 35 nM | 1.9 to 154 |
| isotype control ncADCs (antibody) | > 50 nM | 3.8 to 148 |
| B1 | 0.636 nM and 3.96 nM | – |
